Measurements published in PMC7382501.

Molecular target: FasR full-length (crystallisation) (Mycobacterium tuberculosis H37Rv, UniProt O05858 1-228)
Assay: X-ray crystallography
Details: protein: recombinant; tags: N-terminal His6-TEV, likely cleaved with TEV; chain copies: 2; blunt

B1: Pfas25nt (FwPfas25nt/RvPfas25nt) (dsDNA)
DNA 1: TACCCGTACGTAGAACTCGCCAGTA
DNA 2: TACTGGCGAGTTCTACGTACGGGTA
  binding result: binds
